Measurements taken from patent US20140079722A1, “EXTRACELLULAR TARGETED DRUG CONJUGATES” (CENTROSE, LLC, priority 2011, published 2014).

Key:
[1] = tested on: primary human umbilical artery endothelial cells (HUAEC); experiment: In vitro normal cell cytotoxicity; type: cell-based; details: HUAEC, 72 hrs; conjugates as antibody concentration; read-out: EC50
Experimental: (§1) In vitro normal cell cytotoxicity. The in vitro cytotoxic activity of M53-PEG24-CEN09-106, PEG24-CEN09-106, M53-PEG24-CEN-319, PEG24-CEN-319, proscillaridin and digitoxin against dysadherin positive primary normal human cells and a dysadherin positive human non-small cell lung carcinoma (NSCLC) cell line were tested and compared. The cells used were primary human renal epithelial cells (HREpC), primary human umbilical vein endothelial cells (HUVEC), primary human umbilical artery endothelial cells (HUAEC), and the A549 NSCLC cells. The primary cells were obtained from PromoCell GmbH, Heidelberg, Germany, and the NSCLC cell line A549 was obtained from ATCC. Primary renal epithelial cells were grown in Renal Epithelial Cell Growth Medium 2 (PromoCell GmbH, Heidelberg, Germany). Primary endothelial cells were grown in Endothelial Cell Growth Medium 2 (PromoCell GmbH, Heidelberg, Germany). The NSCLC cell line was grown in RPMI-1640 (HyClone, Thermo Scientific) supplemented with 10% fetal bovine serum. HREpC, HUVEC, HUAEC, and A549 cells were plated in 384 well plates at 1250, 1875, 2500, and 1250 cells/well (respectively) and allowed to incubate for 24 hrs at 37° C., 5% CO2, and 100% humidity. Various concentrations of conjugates M53-PEG24-CEN09-106 and […] and PEG24-CEN09-106 and […] were added to the wells in a total volume of 5 uL of media and the plates were incubated for an additional 72 hrs. After 72 hrs of exposure to agent, cell viability was evaluated using the Cell Titer-Glo Luminescent Cell Viability Assay (Promega, Madison, Wis.) according to the manufacturer's instructions. Luminescence measurements were performed using a Wallac Victor^2 Model 1420-041 assay plate reader (Perkin Elmer, Gaithersburg, Md.). EC50 values for each test agent were determined using GraphPad Prism 5 software.

[2] = tested on: primary human umbilical vein endothelial cells (HUVEC); experiment: In vitro normal cell cytotoxicity; type: cell-based; details: 72 hrs, conjugates as antibody concentration, read-out: EC50
Experimental: as §1

A549 xenografts = experiment: Second A549 xenograft study (tumor fragments); type: in vivo, female HRLN nu/nu mice
Experimental: Briefly, to establish a non-small-cell lung cancer disease model, subcutaneous A549 xenografts were initiated in female HRLN nu/nu mice by implanting 8 mm^3 A549 tumor fragments subcutaneously into the left flank. Tumor growth was monitored, and mice bearing tumors of 60-180 mm^3 were selected for the study. Tumor-bearing mice (n=7 mice/group) with a group average tumor volume of approximately 110 mm^3 were treated i.p. with 5 mgs/kg M53-PEG24-CEN09-106 at q3d×4, 20 mg/kg scillarenin-4-amino-deoxy-L-xylopryanoside (an intermediate in the construction of M53-PEG24-CEN09-106 and known cytotoxin) at q2dx5, and 15 mg/kg paclitaxel at q1d×5. Tumor volumes were measured for each group using calibrated vernier calipers plotted against day of first dose for 100 days to produce the graph shown in FIG. 4.
Paclitaxel at its optimum dosing produced 80% growth inhibition of the tumor when compared to vehicle.

PANC-1 xenograft = PANC-1 xenograft model, alone and with gemcitabine; type: in vivo, C.B-17/IcrHsd-Prkdc scid Lyst bg mice
Experimental: A disease model of pancreatic cancer was established by implanting 5×10^6 PANC-1 cells in 100 μL DMEM into the left flank of 7 week old female C.B-17/IcrHsd-Prkdc^scidLyst^bg mice. Mice were then treated with M53-PEG24-CEN09-106 with a drug loading of 8 and/or gemcitabine when the tumor size in groups of 3 animals averaged ˜500 mm^3. Treatments consisted of either vehicle control, M53-PEG24-CEN09-106 at 0.2, 1 and 5 mg/kg, with and without 60 mg/kg gemcitabine or 60 mg/kg gemcitabine alone and consisted of multiple injections using the M53-PEG24-CEN09-106 schedule of one injection every 7 days for 3 injections (q7d×3) administered i.v. and the gemcitabine schedule of one injection every 3 days for 5 injections (q3d×5) administered i.p. Tumor volumes were measured for each group using calibrated vernier calipers and plotted against first day of tumor implant for 28 days post-initial dose, graphed and shown in FIG. 6.

B1: M53-PEG24-CEN09-106: Class 1 EDC: antibody M53 conjugated to linker-ready agent PEG24-CEN09-106 (scillarenin, 4-amino-xyloside, PEG24) (conjugate)
heavy: EVQLVESGGGLVQPKGTLKLSCAASGFSFNTHAMNWVRQAPGKSLEWVARTMSKSNNYATYYADSVKDRFIIRADDSQSMLYLQMNNLKTEDTAMYYCVRDDPKRGMDYWGQGTSVTVSSAKTTPPSVYPLAPGSAAQTNSMVTLGCLVKGYFPEPVTVTWNSGSLSSGVHTFPAVLQSDLYTLSSSVTVPSSTWPSETVTCNVAHPASSTKVDKKIE
light: GIVMSQSPSSLAVSVGEKVTMSCKPSQSLLYSRNQKIYLAWYQQKPGQSPKLLIYWASTRESGVPDRFTGSGSGTDFTLIISSVRAEDLAVYYCQQYYNYPLTFGAGTKLELKRADAAPTVSIFPPSSEQLTSGGASVVCFLNNFYPKDINVKWKIDGSERQNGVLNSWTDQDSKDSTYSMSSTLTLTKDEYERHNSYTCEATHKTSTSPIVKSFNR
EC50 [1]: 0.029 µM
EC50 [2]: 0.03 µM
growth inhibition of the tumor compared to vehicle (A549 xenografts; 100 days post-initial dose, EDC (loading 3) 5 mg/kg i.p. q3dx4, scillarenin aminoxyloside 20 mg/kg q2dx5, paclitaxel 15 mg/kg q1dx5): 72%
weight loss (A549 xenografts; same dosing as efficacy arms, second A549 xenograft study): no weight loss
growth inhibition of the tumor (PANC-1 xenograft; 0.2 mg/kg i.v. q7dx3 combined with 60 mg/kg gemcitabine i.p. q3dx5): 88%
tumor response (PANC-1 xenograft; 1 and 5 mg/kg i.v. q7dx3 combined with 60 mg/kg gemcitabine i.p. q3dx5): tumor regression
growth inhibition of the tumor compared to vehicle (PANC-1 xenograft; drug loading of 8, 0.2 mg/kg i.v. q7dx3, day 28 post-initial dose): 38%
growth inhibition of the tumor compared to vehicle (PANC-1 xenograft; drug loading of 8, 1 mg/kg i.v. q7dx3, day 28 post-initial dose): 48%
growth inhibition of the tumor compared to vehicle (PANC-1 xenograft; drug loading of 8, 5 mg/kg i.v. q7dx3, day 28 post-initial dose): 76%
